Measured values published in patent US7749694.
pKd: −log10 of the molar value.

Tests used:
[1] = target: pertactin ectodomain (Prn-E) (Bordetella (species not stated)); assay: static light scattering
[2] = target: pertactin ectodomain (Prn-E) (Bordetella (species not stated)); assay: isothermal titration calorimetry (ITC)

“Mtd-P1 (major tropism determinant variant of Bordetella bacteriophage BPP-1) (from UniProt Q775D6 1-381)” showed a stoichiometry of association between Mtd and Prn-E (Mtd monomers per Prn-E (ratio 3:1)) [1] of 3 and a pKd [2] of 5.52.
